This is an account of results in PMC3035450.

This series deals with thrombin (UniProt P00734;P00734 328-363;364-622). In words: SPR. (Surface plasmon resonance follows binding to a sensor surface in real time, without labels.)
By Kd is commonly meant the equilibrium constant for the complex coming apart. Read a high Kd as weaker binding. GGTTGGTGTGGTTGG (structured_DNA) [TBA] returned a Kd of 103 ± 5.1 nM. On to GGTTGGTGTGGTTGG (structured_DNA, UNA-G at 2) [G2], for which binding was put at a Kd of 298 ± 5.7 nM. In the case of GGTTGGTGTGGTTGG (structured_DNA, UNA-G at 1) [G1], the Kd was 95.4 ± 3.9 nM. As for GGTTGGTGTGGTTGG (structured_DNA, UNA-G at 5) [G5], the Kd is 425 ± 17.7 nM. To GGTTGGTGTGGTTGG (structured_DNA, UNA-G at 10) [G10] belongs 222 ± 9.3 nM; to GGTTGGTGTGGTTGG (structured_DNA, UNA-G at 8) [G8], 913 ± 21.2 nM. GGTTGGTGTGGTTGG (structured_DNA, UNA-G at 15) [G15] displayed a Kd of 155 ± 7.4 nM. Turning to GGTTGGTGTGGTTGG (structured_DNA, UNA-G at 6) [G6], the Kd is 287 ± 12.3 nM.
